Measurements as given in publication doi:10.1101/2024.05.01.590489 (bioRxiv, 2024).

B1: mAb1-3 (antibody, V domains shown)
VH: VQLVESGGGVVQPGRSLRLSCAASGFSFSSFVFHWVRQAPGKGLEWVAVISYDGSNKNYADSVKGRFTISRDNSKNTLFLQMNSLSADDTAVYYCARGAICSSTTCYLGDSYYFYGMDVWGQGTTVTVSS
VL: LTQPPSVSGAPGQRVTISCTGSRSNIGAGYDVHWYQQLPGTAPKLLIYGNSNRPSGVPDRFSGSKSGTSASLAITGLQTDDEADYYCQSYDSSLSGSVFGGGTKLTVL
B2: mAb1-5 (antibody, V domains shown)
VH: EVQLVESGGGLVKPGGSLRLSCAASGFMFSSYSMNWVRQAPGKGLEWVSSISRSDSYIDYADSVKGRFTISRDTAMNVLYLQMDSLRAEDTGVYYCARTHVFNMFREVINDDYYGMDVWGQGTTVTVS
VL: ALTQPASVSGSPGQSITISCTGTSSDFGIYNSVSWYQHHPGKAPKLMIFGVSNRPSGVSNRFSGSKSGNTASLSISGLQAEDEADYYCSSFTARSTVVFGGGTKLTVL
B3: mAb2-3 (antibody, V domains shown)
VH: VQLVESGGGLVKPGGSLRLSCATSGFTFSDYYMSWIRQAPGKGLEWVSYISSSGSTIYYADSVKGRFTMSRDNAKNSLFLRMNSLRAEDTAVYYCARDQITVDREVIRAHYYYGMDVWGQGTTVTVS
VL: DIQMTQSPSSVSASVGDRVTITCRASQGINSYLAWYQQKPGKAPKLLIYAASSLESGVPSRFSGSGSGTDFTLTISSLQPEDFATYYCQQANSFPLTFGGGTKVDI
B4: mAb2-1 (antibody, V domains shown)
VH: EVQLLESGGGLVQPGKSLRLSCAASGFSFSNYAMSWVRQAPGKGLEWVSGISGSGGSTNYAESVRGRFTISRDNSKNTLYLEMNSLRVEDTAVYYCAKGMSYYDRSGYFWAKYHYGMDVWGQGITVTVSS
VL: not shown
B5: mAb1-4 (antibody, V domains shown)
VH: QVQVVESGAEVKKPGASVKVSCKASGYAFTTYYMHWVRQAPGQGLEWMGLINPSGDSITYAQRFQGRVTMTKDTSTSTVYMELSSLRSEDTAIYYCARDPNVAFYYGSGNYYKDNAMDVWGQGTTVTVSS
VL: not shown
B6: mAb1-2 (antibody, V domains shown)
VH: EVQLVESGGGLVQPGGSLRLSCAASGFIFSNYWMSWVRQAPGKGPEWVANIKQDGSANHYVDSVKGRFTISRDNAKNSLYLQMNSLRAEDTAVYYCAREAYQDWNYDYWGQGTLVTVSS
VL: DIQMTQSPSSLSASVGDRVTVTCRASEFISRYLNWYQQKPGKAPKVLIYAASSLQSGVPSRFSGSGSGTDFTLTISSLQPEDFATYYCQQSYSTPYTFGQGTKLEIK
B7: mAb1-7 (antibody, V domains shown)
VH: QVQLQESGPGLVKPSETLSLTCTVSGDSIRSYYWSWIRQPPGKGLEWIGHIYYSGSTNYKPSLKSRATILVDTSKNQFSLKLRSVTAADTAVYYCAREMTGVAGRGWDHWGQGTLVTVSS
VL: ALTQPPSASGTPGQRVTISCSGSSSNIGSNTVNWYQQLPGTAPKLLIFINNQRPSGVPDRFSGSKSGTSASLAISGLQSEDEADYYCTTWDGSLNGYVFGTRTEVTVL
B8: mAb2-2 (antibody, V domains shown)
VH: QVQLQESGPGLVKPSVTLSLTCTVSGDSISTYYWSWVRQPPGKGLEWIGYIYYSGNTNYNPSLKSRVTMSVDTSKNQFSLKLNSVTAADTAVYYCARTHHDYGDYRPSYYFDYWGQGTLVTVSS
VL: QSALTQPASVSGSPGQSITISCTGTSSDVGAYDYVSWYQQHPGKAPKLMIYDVSNRPSSGVSNRFSGSKSGNTASLTISGLQAEDEADYYCSSYTSSSTVILGGGTKLTVL
B9: mAb1-1 (antibody, V domains shown)
VH: EVQLVESGGGLVKPGGSLRLSCAASGVPFSDAWMNWVRQAPGKGLEWVGRIKSKKDGGTADYAAPVKGRFSISRDDSKKMLYLHMNSLKTEDTAVYYCTTEPSGYCSNGLCYTGNYWGQGTLVTVSS
VL: QPVLTQSSSASASLGSSVKLTCTLSSGHITYIIAWHQQQPGKAPRYLMKLEDSGSYNKGSGVPDRFSGSSSGADRYLTISNLQFEDEADYYCETWDSYTRVFGGGTKLT

Molecular target: AAV9 capsid (adeno-associated virus serotype 9 (AAV9), UniProt Q6JC40)
Experiment: far-Western, overlay or dot blot

Binder	binding result
B1	binds
B2	binds
B3	binds
B4	binds
B5	binds
B6	binds
B7	binds
B8	binds
B9	binds
